System: T1, CadX (single-chain homodimer, two identical CadX copies joined by GGGGSGGGGSGGGGS linker) (Streptococcus suis GZ0565), ORF:24397d24
T1 sequence: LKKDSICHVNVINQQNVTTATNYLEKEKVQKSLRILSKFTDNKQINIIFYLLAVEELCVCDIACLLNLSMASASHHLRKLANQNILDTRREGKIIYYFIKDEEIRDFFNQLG
Test: EMSA

## TTTGGATGGCAGGGCTTTTTTATATTTGGTACACTAACTTCTTATCTATATTTTGGTGGAGCTGAAGTTGACATCTACAATGTTTAATGTTAGAATACATTCAAAAATATATTTGAATGAGGTCTTTT (double strand) [cadDX promoter fragment]
  binding: binds

Reference: article PMC11430099
